Results published in EP4782837A1.

Molecular target: Cetux-probe (cetuximab conjugated with the C-probe)
Experiment: cell-based or functional assay

fold increase of Cetux-probe fluorescence on enzyme treatment (37°C, 1 hour) [fold] | Substance
24 | cathepsin B (enzyme)
13.5 | papain (from UniProt P00784 134-345) (enzyme)
